In data set [1] the target is T1, LeuO (Vibrio parahaemolyticus) (UniProt Q87SS2).
T1 sequence: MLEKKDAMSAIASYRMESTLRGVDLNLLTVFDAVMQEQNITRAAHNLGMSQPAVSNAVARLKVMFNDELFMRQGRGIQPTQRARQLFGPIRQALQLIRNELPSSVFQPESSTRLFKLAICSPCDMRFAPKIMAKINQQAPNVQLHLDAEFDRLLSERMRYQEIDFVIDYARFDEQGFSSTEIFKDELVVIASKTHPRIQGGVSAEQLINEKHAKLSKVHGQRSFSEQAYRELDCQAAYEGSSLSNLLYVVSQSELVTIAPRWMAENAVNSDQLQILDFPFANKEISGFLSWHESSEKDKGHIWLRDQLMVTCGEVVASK
Put plainly: EMSA.

The target in data set [2] is T2, NhaR (Vibrio parahaemolyticus) (UniProt Q87S97).
T2 sequence: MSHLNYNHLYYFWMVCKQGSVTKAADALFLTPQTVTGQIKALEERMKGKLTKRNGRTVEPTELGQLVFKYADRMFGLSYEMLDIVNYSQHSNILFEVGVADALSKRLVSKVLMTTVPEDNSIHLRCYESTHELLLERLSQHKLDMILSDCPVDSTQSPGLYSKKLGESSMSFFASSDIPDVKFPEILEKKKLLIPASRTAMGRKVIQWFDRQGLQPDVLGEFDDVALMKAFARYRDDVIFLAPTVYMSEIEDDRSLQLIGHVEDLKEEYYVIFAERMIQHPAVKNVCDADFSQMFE
The data set can be described thus: EMSA. On the technique in general: A gel shift assay detects complexes by their altered migration in electrophoresis.

With “CCACGACGACAAAACTAACCTTAAAACGGCATGCGAAAGTGTGCCGTTTTTTTATGTAAAAAACCTTAAGTCCCCTCTTTGAAACCCCACTGCATTCTGACTCAT (double strand) [PectA probe 1C]”, the binding entry in data set [1] and in data set [2] was “binds” throughout.

For “CCAAGGTGCTGATGTGATCATTTTGAAATACATATCCTTTGACGTCTAATTAAATTTCGTATTTATTATGGACATTCTTTACGGTTGAAAATCAAATAATCTGCGTTTTAATCTGGATTAATGTG (double strand) [PectA probe 1A]”, the binding result in data set [1] and in data set [2] was “binds” each time.

The record behind these values is article doi:10.1101/2022.11.11.516238.
